Data taken from paper PMC10514558, “Suramin inhibits SARS-CoV-2 nucleocapsid phosphoprotein genome packaging function”.

What was measured:
SARS-CoV-2 N CTD = SARS-CoV-2 N CTD (SARS-CoV-2, UniProt P0DTC9 247-364); assay: MST; details: protein: recombinant; tags: 6xHis; chain copies: 2; label: 5'-Cy5
SARS-CoV-2 N NTD = SARS-CoV-2 N NTD (SARS-CoV-2, UniProt P0DTC9 44-180); assay: MST; 20 nM RNA; no suramin; apparent Kd; details: protein: recombinant; tags: 6xHis; label: 5'-Cy5

B1: Cy5-ssRNA 7-mer (ssRNA)
RNA: AUUAAAG
Q: Which results are given for B1?
A: Kd (SARS-CoV-2 N CTD): 5.3 ± 0.2 µM; Kd (SARS-CoV-2 N NTD): 30.6 ± 4.9 µM
